For one series, the target named is T1, KBL-1 (Stenotrophomonas maltophilia, UniProt A0A7I8E9L1).
T1 construct: gene blaKBL-1; full length 286 residues; expressed without signal peptide in E. coli BL21-CodonPlus (pET28a); His-tag removed by TEV
The series can be described thus: penicillin G hydrolysis, UV spectrophotometry. The class given is biochemical.

The test system of series [1] is CO/N=C(\C(=O)N[C@@H]1C(=O)N2C(C(=O)[O-])=C(C[N+]3(C)CCCC3)CS[C@H]12)c1csc(N)n1. As to the kind of experiment: initial rate of hydrolysis, UV spectrophotometry, Lineweaver-Burk. The class given is biochemical, Stenotrophomonas maltophilia. The conditions noted are these: 37°C, 50 mM Tris-HCl pH 7.4, 0.3 M NaCl. The source says:
(§1) initial rate of hydrolysis, UV spectrophotometry, Lineweaver-Burk on KBL-1

Series [2] deals with CO[C@@]1(NC(=O)C(C(=O)O)c2ccc(O)cc2)C(=O)N2C(C(=O)O)=C(CSc3nnnn3C)CO[C@@H]21. The series is described as above. The class given is biochemical, Stenotrophomonas maltophilia. The note with it: 37°C, 50 mM Tris-HCl pH 7.4, 0.3 M NaCl.
Description: as §1

For series [3], the system named is CC1(C)S[C@@H]2[C@H](NC(=O)[C@H](N)c3ccc(O)cc3)C(=O)N2[C@H]1C(=O)O. The series is described as above. The format is biochemical, Stenotrophomonas maltophilia. The note with it: 37°C, 50 mM Tris-HCl pH 7.4, 0.3 M NaCl.
Description: as §1

For series [4], the system named is CCN1CCN(C(=O)N[C@@H](C(=O)N[C@@H]2C(=O)N3[C@@H]2SC(C)(C)[C@@H]3C(=O)O)c2ccccc2)C(=O)C1=O. The description is as above. The format is biochemical, Stenotrophomonas maltophilia. The note with it: 37°C, 50 mM Tris-HCl pH 7.4, 0.3 M NaCl.
Description: as §1

Series [5] relates to CC1(C)S[C@@H]2[C@H](NC(=O)Cc3ccccc3)C(=O)N2[C@H]1C(=O)O. The series is described as above. The class given is biochemical, Stenotrophomonas maltophilia. The note with it: 37°C, 50 mM Tris-HCl pH 7.4, 0.3 M NaCl.
Description: as §1

Series [6] concerns CC1=C(C(=O)O)N2C(=O)[C@@H](NC(=O)[C@H](N)C3=CCC=CC3)[C@H]2SC1. Described as above. The class given is biochemical, Stenotrophomonas maltophilia. The conditions noted are these: 37°C, 50 mM Tris-HCl pH 7.4, 0.3 M NaCl.
Description: as §1

Series [7] has as its system C[C@@H](O)[C@H]1C(=O)N2C(C(=O)O)=C(S[C@@H]3CN[C@H](C(=O)N(C)C)C3)[C@H](C)[C@H]12. Described as above. The class given is biochemical, Stenotrophomonas maltophilia. The conditions noted are these: 37°C, 50 mM Tris-HCl pH 7.4, 0.3 M NaCl.
Description: as §1

The subject of series [8] is CO/N=C(\C(=O)N[C@@H]1C(=O)N2C(C(=O)O)=C(COC(C)=O)CS[C@H]12)c1csc(N)n1. Described as above. The format is biochemical, Stenotrophomonas maltophilia. The note with it: 37°C, 50 mM Tris-HCl pH 7.4, 0.3 M NaCl.
Description: as §1

The subject of series [9] is C[C@@H](O)[C@H]1C(=O)N2C(C(=O)O)=C(SCCN=CN)C[C@H]12. Described as above. The format is biochemical, Stenotrophomonas maltophilia. The note with it: 37°C, 50 mM Tris-HCl pH 7.4, 0.3 M NaCl.
Description: as §1

The test system of series [10] is CC1(C)S[C@@H]2[C@H](NC(=O)[C@H](N)c3ccccc3)C(=O)N2[C@H]1C(=O)O. Described as above. The format is biochemical, Stenotrophomonas maltophilia. The conditions noted are these: 37°C, 50 mM Tris-HCl pH 7.4, 0.3 M NaCl.
Description: as §1

The test system of series [11] is CC(C)(O/N=C(\C(=O)N[C@@H]1C(=O)N2C(C(=O)[O-])=C(C[n+]3ccccc3)CS[C@H]12)c1csc(N)n1)C(=O)O. The description is as above. The note with it: 37°C, 50 mM Tris-HCl pH 7.4, 0.3 M NaCl. The format is biochemical, Stenotrophomonas maltophilia.
Description: as §1

Series [12] relates to CO[C@@]1(NC(=O)Cc2cccs2)C(=O)N2C(C(=O)O)=C(COC(N)=O)CS[C@@H]21. The description is as above. The note with it: 37°C, 50 mM Tris-HCl pH 7.4, 0.3 M NaCl. The format is biochemical, Stenotrophomonas maltophilia.
Description: as §1

T1 sequence (A0A7I8E9L1 entry or part of it): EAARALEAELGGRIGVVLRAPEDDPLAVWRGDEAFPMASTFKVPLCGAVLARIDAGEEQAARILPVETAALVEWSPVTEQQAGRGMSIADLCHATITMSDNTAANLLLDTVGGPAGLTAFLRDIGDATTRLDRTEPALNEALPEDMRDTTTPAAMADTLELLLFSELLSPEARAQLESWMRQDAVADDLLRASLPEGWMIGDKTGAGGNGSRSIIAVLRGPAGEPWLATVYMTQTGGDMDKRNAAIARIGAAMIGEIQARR

For orientation: IC50 means the point on the concentration scale where inhibition reaches its midpoint. Higher therefore signals weaker potency in that assay. With `O=C(O)[C@H]1/C(=C/CO)O[C@@H]2CC(=O)N21` [clavulanic acid], it took 210 nM to reach half-maximal inhibition against KBL-1 (IC50).

Molecule `CC1(C)[C@H](C(=O)O)N2C(=O)C[C@H]2S1(=O)=O` [sulbactam] displayed an IC50 at KBL-1 of 1200 nM.

A word on the Km: it is the substrate concentration at which the rate is half of its maximum. One may read the kcat as the number of substrate molecules converted per active site and unit of time at saturation. The kcat/Km is the second-order rate constant that governs catalysis at low substrate concentration. For KBL-1 (Stenotrophomonas maltophilia), the Km in series [1] came out at 79 ± 2 µM; in [2] it was 49 ± 4 µM; in series [3] it was 23 ± 4 µM; in series [4], 52 ± 7 µM; in [5] it was 21 ± 5 µM; in series [6], 605 ± 45 µM. Moreover, the Km in series [7] turned out to be 39 ± 6 µM; in series [8], 31 ± 5 µM; in series [9], 85 ± 7 µM; in series [10], 37 ± 8 µM; in [11], 45 ± 12 µM; in series [12], 57 ± 6 µM. The catalytic constant (kcat) in [1] came to 0.751 ± 0.029 s⁻¹; in [2] it was 0.392 ± 0.009 s⁻¹; in series [3], 10 ± 0.4 s⁻¹; in series [4] it was 22 ± 1 s⁻¹; in series [5], 24 ± 2 s⁻¹; in series [6], 2.23 ± 0.13 s⁻¹. Moreover, the kcat worked out at 0.443 ± 0.056 s⁻¹ in series [7]; 1.33 ± 0.053 s⁻¹ in series [8]; 1.13 ± 0.143 s⁻¹ in [9]; 19 ± 1 s⁻¹ in series [10]; 0.013 ± 0.003 s⁻¹ in series [11]; 0.032 ± 0.002 s⁻¹ in series [12]. Also, the kcat/Km was found to be 10000 M⁻¹ s⁻¹ in series [1]; 8000 M⁻¹ s⁻¹ in series [2]; 455000 M⁻¹ s⁻¹ in series [3]; 422000 M⁻¹ s⁻¹ in series [4]; 1.17e+06 M⁻¹ s⁻¹ in series [5]; 4000 M⁻¹ s⁻¹ in series [6]. Moreover, the kcat/Km in series [7] was found to be 11000 M⁻¹ s⁻¹; in series [8], 44000 M⁻¹ s⁻¹; in [9] it was 13000 M⁻¹ s⁻¹; in [10], 532000 M⁻¹ s⁻¹; in [11] it was 300 M⁻¹ s⁻¹; in [12], 1000 M⁻¹ s⁻¹.

Source of the values: publication PMC9431274, “Stenotrophomonas maltophilia from Nepal Producing Two Novel Antibiotic Inactivating Enzymes, a Class A β-Lactamase KBL-1 and an Aminoglycoside 6′-N-Acetyltransferase AAC(6′)-Iap” (Microbiology Spectrum, 2022).
